In article PMC10164577, “CAF-1 deposits newly synthesized histones during DNA replication using distinct mechanisms on the leading and lagging strands”:

Target: CAF-1 (Cac1-Cac2-Cac3) (Saccharomyces cerevisiae? (yeast), UniProt Q12495;Q04199;P13712 1-606;1-468;1-422)
Experiment: EMSA; EMSA: 25 mM Tris pH 7.5, 150 mM NaCl, 1 mM EDTA, 0.02% Tween-20, 1 mM TCEP, 50 nM DNA, 6% PAGE; SEC: 50 mM HEPES pH 7.5, 200 mM NaCl, 0.01% IGEPAL, 1 mM TCEP, 10 mM MgCl2, PCNA loading at 30 C with 3 mM ATP, CAF-1 at room temperature
Settings: protein: recombinant, chain copies: 2;2;2, blunt

| Binder | Kd [nM] | Kd (label: 5' Alexa Fluor 647 on forward strand) [nM] |
| --- | --- | --- |
| 43 bp DNA (dsDNA) DNA 1: CTAGAGCTGTCTACGAGCAATTGAGCGGCCTCGGCACCGGGAT DNA 2: ATCCCGGTGCCGAGGCCGCTCAATTGCTCGTAGACAGCTCTAG | 230 |  |
| 53 bp DNA (dsDNA) DNA 1: CGGTGCTAGAGCTGTCTACGAGCAATTGAGCGGCCTCGGCACCGGGATTCTGA DNA 2: TCAGAATCCCGGTGCCGAGGCCGCTCAATTGCTCGTAGACAGCTCTAGCACCG | 180 |  |
| 33 bp DNA (dsDNA) DNA 1: GCTGTCTACGAGCAATTGAGCGGCCTCGGCACC DNA 2: GGTGCCGAGGCCGCTCAATTGCTCGTAGACAGC |  | 330 |
